Laboratory results published in the Immune Epitope Database (IEDB).

Key:
HLA-A*02:06 = test: IEDB peptide-MHC binding, purified MHC/competitive/radioactivity; ≥ and ≤ were set here for values at or beyond the usual limits of such assays
HLA-A*02:02 = test: as above
HLA-A*02:03 = test: as above
HLA-A*02:01 = test: as above
HLA-A*68:02 = test: IEDB peptide-MHC binding, cellular MHC/competitive/fluorescence; ≥ and ≤ were set here for values at or beyond the usual limits of such assays
[1] = source organism: Vaccinia virus WR
[2] = source organism: Hepacivirus hominis
[3] = source organism: Influenza A virus
[4] = source organism: Mammarenavirus whitewaterense
[5] = source organism: Mammarenavirus brazilense

Sequence	IC50 (HLA-A*02:06; [1]) [nM]	IC50 (HLA-A*02:02; [1]) [nM]	IC50 (HLA-A*02:03; [1]) [nM]	IC50 (HLA-A*02:01; [1]) [nM]	IC50 (HLA-A*68:02; [1]) [nM]	also measured
SINNQLMYDI	4840	492	482	2380	6460	–
LLVAAGMEA	–	–	–	–	–	IC50 (HLA-A*02:06; source organism: SARS-CoV1): 117 nM; IC50 (HLA-A*02:02; source organism: SARS-CoV1): 17 nM; IC50 (HLA-A*02:03; source organism: SARS-CoV1): 17 nM; IC50 (HLA-A*02:01; source organism: SARS-CoV1): 51 nM; IC50 (HLA-A*68:02; source organism: SARS-CoV1): 19300 nM
ALLSCIRNA	77	120	6.2	23	≥ 70000	–
LLEQLIENI	539	702	1960	1570	≥ 70000	–
YLPEVISTIA	18	11	0.96	29	7130	–
PVLEKKVCAI	1040	541	1190	1530	39700	–
AQMGTLLIA	–	–	–	–	–	IC50 (HLA-A*02:06; source organism: SARS-CoV1): 0.44 nM; IC50 (HLA-A*02:02; source organism: SARS-CoV1): 65 nM; IC50 (HLA-A*02:03; source organism: SARS-CoV1): 1.6 nM; IC50 (HLA-A*02:01; source organism: SARS-CoV1): 37 nM; IC50 (HLA-A*68:02; source organism: SARS-CoV1): 12200 nM
WIKDIMTST	136	193	12	948	9480	–
SMMVILPDKI	5.7	28	19	6.1	7290	–
GVSGLYIPGT	32	140	2150	4730	15800	–
RLIVYPDLGV	–	–	–	–	–	IC50 (HLA-A*02:06; [2]): 129 nM; IC50 (HLA-A*02:02; [2]): 1.9 nM; IC50 (HLA-A*02:03; [2]): 15 nM; IC50 (HLA-A*02:01; [2]): 43 nM; IC50 (HLA-A*68:02; [2]): 6680 nM
VMHINSPFKV	393	60	2.5	13	6270	–
KLFTIAMWLL	–	–	–	–	–	IC50 (HLA-A*02:06; source organism: SARS-CoV1): 262 nM; IC50 (HLA-A*02:02; source organism: SARS-CoV1): 8.5 nM; IC50 (HLA-A*02:03; source organism: SARS-CoV1): 709 nM; IC50 (HLA-A*02:01; source organism: SARS-CoV1): 30 nM; IC50 (HLA-A*68:02; source organism: SARS-CoV1): 9420 nM
LAELLEMKYA	2450	999	1040	2510	23300	–
IIGEPIIVA	1350	2320	4780	1440	6390	–
FMEEEIKAEM	865	1030	3070	86	16800	–
ILGIIITVGM	4710	288	265	1270	38300	–
YLLGLSAIM	–	–	–	–	–	IC50 (HLA-A*02:06; source organism: SARS-CoV1): 3.2 nM; IC50 (HLA-A*02:02; source organism: SARS-CoV1): 1.7 nM; IC50 (HLA-A*02:03; source organism: SARS-CoV1): 37 nM; IC50 (HLA-A*02:01; source organism: SARS-CoV1): 1.1 nM; IC50 (HLA-A*68:02; source organism: SARS-CoV1): 12100 nM

Sequence	IC50 (HLA-A*02:06; [1]) [nM]	IC50 (HLA-A*02:02; [1]) [nM]	IC50 (HLA-A*02:03; [1]) [nM]	IC50 (HLA-A*02:01; [1]) [nM]	IC50 (HLA-A*68:02; [1]) [nM]	also measured
LLLEWLAEVV	–	–	–	–	–	IC50 (HLA-A*02:06; source organism: SARS-CoV1): 0.52 nM; IC50 (HLA-A*02:02; source organism: SARS-CoV1): 0.31 nM; IC50 (HLA-A*02:03; source organism: SARS-CoV1): 0.81 nM; IC50 (HLA-A*02:01; source organism: SARS-CoV1): 0.37 nM; IC50 (HLA-A*68:02; source organism: SARS-CoV1): 10800 nM
RILGAGCFV	–	–	–	–	–	IC50 (HLA-A*02:06; source organism: SARS-CoV1): 38 nM; IC50 (HLA-A*02:02; source organism: SARS-CoV1): 24 nM; IC50 (HLA-A*02:03; source organism: SARS-CoV1): 53 nM; IC50 (HLA-A*02:01; source organism: SARS-CoV1): 20 nM; IC50 (HLA-A*68:02; source organism: SARS-CoV1): 7010 nM
QIGGEAIFLI	15	8.2	0.2	383	≥ 70000	–
AIMDKNIML	–	–	–	–	–	IC50 (HLA-A*02:06; [3]): 304 nM; IC50 (HLA-A*02:02; [3]): 153 nM; IC50 (HLA-A*02:03; [3]): 802 nM; IC50 (HLA-A*02:01; [3]): 75 nM; IC50 (HLA-A*68:02; [3]): 13000 nM
FLLFLVLIML	–	–	–	–	–	IC50 (HLA-A*02:06; source organism: SARS-CoV1): 2920 nM; IC50 (HLA-A*02:02; source organism: SARS-CoV1): 1570 nM; IC50 (HLA-A*02:03; source organism: SARS-CoV1): 1380 nM; IC50 (HLA-A*02:01; source organism: SARS-CoV1): 140 nM; IC50 (HLA-A*68:02; source organism: SARS-CoV1): 5940 nM
VLAGYGAGI	–	–	–	–	–	IC50 (HLA-A*02:06; [2]): 2500 nM; IC50 (HLA-A*02:02; [2]): 11 nM; IC50 (HLA-A*02:03; [2]): 18 nM; IC50 (HLA-A*02:01; [2]): 408 nM; IC50 (HLA-A*68:02; [2]): 14700 nM
KLLNMRDLI	44	496	329	18	30200	–
LVTSFLLMIV	–	–	–	–	–	IC50 (HLA-A*02:06; source organism: SARS-CoV1): 161 nM; IC50 (HLA-A*02:02; source organism: SARS-CoV1): 31 nM; IC50 (HLA-A*02:03; source organism: SARS-CoV1): 12 nM; IC50 (HLA-A*02:01; source organism: SARS-CoV1): 775 nM; IC50 (HLA-A*68:02; source organism: SARS-CoV1): 5740 nM
PTWLGAAITL	1770	1360	1010	4810	7400	–
GLVDVCFWS	–	–	–	–	–	IC50 (HLA-A*02:06; [4]): 534 nM; IC50 (HLA-A*02:02; [4]): 116 nM; IC50 (HLA-A*02:03; [4]): 1070 nM; IC50 (HLA-A*02:01; [4]): 112 nM; IC50 (HLA-A*68:02; [4]): 8220 nM
FLQISRVNDL	582	5.2	67	13	7360	–
AAVTLNRIKI	1920	830	3490	2320	5980	–
GLIHACMLV	–	–	–	–	–	IC50 (HLA-A*02:06; [2]): 12 nM; IC50 (HLA-A*02:02; [2]): 1.5 nM; IC50 (HLA-A*02:03; [2]): 1.9 nM; IC50 (HLA-A*02:01; [2]): 1.3 nM; IC50 (HLA-A*68:02; [2]): 37400 nM
GLLEWIFRA	–	–	–	–	–	IC50 (HLA-A*02:06; [5]): 7.1 nM; IC50 (HLA-A*02:02; [5]): 22 nM; IC50 (HLA-A*02:03; [5]): 226 nM; IC50 (HLA-A*02:01; [5]): 1.2 nM; IC50 (HLA-A*68:02; [5]): 53100 nM
KILSDENYLL	16	25	3770	15	≥ 70000	–
ILSLETVKM	280	4.8	12	204	9700	–
GLYIPGTSVI	3620	92	0.19	1570	≥ 70000	–
